Data on 13 molecules can be found in patent publication US20250099587A1 (KELONIA THERAPEUTICS, published 2025).

The target in the assay is T1, recombinant, phycoerythrin (PE) labeled, BCMA extracellular domain-FC fusion protein (Homo sapiens (Human), UniProt Q02223 1-54, phycoerythrin (PE) label).
T1 construct: The whole entry is named here; only the extracellular domain stood in the assay; also called BCMA-PE; not shown: Fc part of the staining reagent
T1 sequence: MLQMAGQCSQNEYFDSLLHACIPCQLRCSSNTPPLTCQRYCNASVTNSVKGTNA
Briefly: flow cytometry of transduced PBMCs stained with BCMA-PE (PE-labeled BCMA extracellular domain-Fc). The method, then: 5×10⁵ human PBMCs were plated in each well of a 24-well plate. Cells were transduced with recombinant lentiviruses LV 1 to LV 19 at a MOI 2 based on the Jurkat functional titer, or a 0.5 mL volumetric transduction if MOI 2 was not achievable. Seven days post-transduction, PBMCs were harvested and stained with BCMA-PE and analyzed by flow cytometry to assess the percentage of anti-BCMA CAR expressing cells. FIG. 2B.
A general note: In flow cytometry, cells or beads pass a laser one at a time.

B1: anti-BCMA CAR of recombinant lentivirus LV 5 (SEQ ID NO: 263) (receptor)
chain: QVQLVESGGGLVKPGGSLRLSCAASGFTFSDYYMSWIRQAPGKGLEWVSYISSSGSTIYYADSVKGRFTISRDNAKNSLYLQMNSLRAEDTAVYYCARDQGNYGVDVWGQGTTVTVSSGGGGSGGGGSGGGGSGGGGSDIQMTQSPSTLSASVGDRVTITCRASQSISSWLAWYQQKPGKAPKLLIYEASSLESGVPSRFSGSGSGTEFTLTISSLQPDDFATYYCQQSDSHPITFGGGTKVEIKTTTPAPRPPTPAPTIASQPLSLRPEACRPAAGGAVHTRGLDFACDIYIWAPLAGTCGVLLLSLVITLYCKRGRKKLLYIFKQPFMRPVQTTQEEDGCSCRFPEEEEGGCELRVKFSRSADAPAYQQGQNQLYNELNLGRREEYDVLDKRRGRDPEMGGKPRRKNPQEGLYNELQKDKMAEAYSEIGMKGERRRGKGHDGLYQGLSTATKDTYDALHMQALPPR
notes: also called LV 5.1 to LV 5.9
As to B1, the binding result is recorded as “binds”.

B2: anti-BCMA CAR of recombinant lentivirus LV 8 (SEQ ID NO: 270) (receptor)
chain: DIQMTQSPSSLSASVGDRVTITCQASQDIANYLNWYQQKPGKAPKLLIYDASNLETGVPSRFSGSGSGTDFTFTISSLQPEDIATYYCQQHFNLPLTFGGGTKVEIKGGGGSGGGGSGGGGSGGGGSQITLKESGPTLVKPTQTLTLTCTFSGFSLSTSGVGVGWIRQPPGKALEWLALIYWNDEKRYSPSLKSRLTITKDTSKNQVVLTMTNMDPVDTAVYYCAREGSHDYKSSNWFDPWGQGTLVTVSSTTTPAPRPPTPAPTIASQPLSLRPEACRPAAGGAVHTRGLDFACDIYIWAPLAGTCGVLLLSLVITLYCKRGRKKLLYIFKQPFMRPVQTTQEEDGCSCRFPEEEEGGCELRVKFSRSADAPAYQQGQNQLYNELNLGRREEYDVLDKRRGRDPEMGGKPRRKNPQEGLYNELQKDKMAEAYSEIGMKGERRRGKGHDGLYQGLSTATKDTYDALHMQALPPR
notes: also called LV 8.1 to LV 8.9
With B2, the binding result is listed as “binds”.

B3: anti-BCMA CAR of recombinant lentivirus LV 12 (SEQ ID NO: 276) (receptor)
chain: EVQLLESGGGLVQPGGSLRLSCAASGFTFEDYAMSWFRQAPGKEREGVSAISGKGGSTYYADSVKGRFTISRDNSKNTLYLQMNSLRAEDTAVYYCAVLDEEAGAEGGYWGQGTQVTVSSTTTPAPRPPTPAPTIASQPLSLRPEACRPAAGGAVHTRGLDFACDIYIWAPLAGTCGVLLLSLVITLYCKRGRKKLLYIFKQPFMRPVQTTQEEDGCSCRFPEEEEGGCELRVKFSRSADAPAYQQGQNQLYNELNLGRREEYDVLDKRRGRDPEMGGKPRRKNPQEGLYNELQKDKMAEAYSEIGMKGERRRGKGHDGLYQGLSTATKDTYDALHMQALPPR
On to B3, for which the binding result is on record as “binds”.

B4: anti-BCMA CAR of recombinant lentivirus LV 13 (SEQ ID NO: 277) (receptor)
chain: EVQLLESGGGLVQPGGSLRLSCAASGFTFDRYAMSWFRQAPGKEREGVSAISTSGDSTYYADSVKGRFTISRDNSKNTLYLQMNSLRAEDTAVYYCAVLDEEAGAEGGYWGQGTQVTVSSTTTPAPRPPTPAPTIASQPLSLRPEACRPAAGGAVHTRGLDFACDIYIWAPLAGTCGVLLLSLVITLYCKRGRKKLLYIFKQPFMRPVQTTQEEDGCSCRFPEEEEGGCELRVKFSRSADAPAYQQGQNQLYNELNLGRREEYDVLDKRRGRDPEMGGKPRRKNPQEGLYNELQKDKMAEAYSEIGMKGERRRGKGHDGLYQGLSTATKDTYDALHMQALPPR
notes: also called LV 13.1 to LV 13.9
On to B4, for which the binding result is listed as “binds”.

B5: anti-BCMA CAR of recombinant lentivirus LV 3 (SEQ ID NO: 259) (receptor)
chain: QVQLVESGGGVVQPGRSLRLSCAASGFTFSSYGMHWVRQAPGKGLEWVAVISYEGSNKYYADSVKGRFTISRDNSKNTLYLQMNSLRAEDTAVYYCARELGDGMDVWGQGTTVTVSSGGGGSGGGGSGGGGSGGGGSEIVLTQSPATLSLSPGERATLSCRASQSVSSYLAWFQQKPGQAPRLLIYDASNRATGIPARFSGSGSGTDFTLTISSLEPEDFAVYYCQQRVDLWTFGGGTKVEIKTTTPAPRPPTPAPTIASQPLSLRPEACRPAAGGAVHTRGLDFACDIYIWAPLAGTCGVLLLSLVITLYCKRGRKKLLYIFKQPFMRPVQTTQEEDGCSCRFPEEEEGGCELRVKFSRSADAPAYQQGQNQLYNELNLGRREEYDVLDKRRGRDPEMGGKPRRKNPQEGLYNELQKDKMAEAYSEIGMKGERRRGKGHDGLYQGLSTATKDTYDALHMQALPPR
notes: also called LV 3.1 to LV 3.9
Take B5: the binding result is listed as “binds”.

B6: anti-BCMA CAR of recombinant lentivirus LV 1 (SEQ ID NO: 256) (receptor)
chain: EIVLTQSPATLSLSPGERATLSCRASQSVSSYLAWYQQKPGQAPRLLIYDASNRATGIPARFSGSGSGTDFTLTISSLEPEDFAVYYCQQRVVYPITFGGGTKVEIKGGGGSGGGGSGGGGSGGGGSQITLKESGPTLVKPTQTLTLTCTFSGFSLSTSGVGVGWIRQPPGKALEWLALIYWNDEKRYSPSLKSRLTITKDTSKNQVVLTMTNMDPVDTAVYYCARDEYGGFDIWGQGTMVTVSSTTTPAPRPPTPAPTIASQPLSLRPEACRPAAGGAVHTRGLDFACDIYIWAPLAGTCGVLLLSLVITLYCKRGRKKLLYIFKQPFMRPVQTTQEEDGCSCRFPEEEEGGCELRVKFSRSADAPAYQQGQNQLYNELNLGRREEYDVLDKRRGRDPEMGGKPRRKNPQEGLYNELQKDKMAEAYSEIGMKGERRRGKGHDGLYQGLSTATKDTYDALHMQALPPR
Turning to B6, the binding result is on record as “binds”.

B7: anti-BCMA CAR of recombinant lentivirus LV 2 (SEQ ID NO: 258) (receptor)
chain: EIVLTQSPATLSLSPGERATLSCRASQSVSSYLAWYQQKPGQAPRLLIYDASNRATGIPARFSGSGSGTDFTLTISSLEPEDFAVYYCQQRFDYPITFGGGTKVEIKGGGGSGGGGSGGGGSGGGGSQITLKESGPTLVKPTQTLTLTCTFSGFSLSTSGVGVGWIRQPPGKALEWLALIYWNDDKRYSPSLKSRLTITKDTSKNQVVLTMTNMDPVDTAVYYCARDEYGGFDIWGQGTMVTVSSTTTPAPRPPTPAPTIASQPLSLRPEACRPAAGGAVHTRGLDFACDIYIWAPLAGTCGVLLLSLVITLYCKRGRKKLLYIFKQPFMRPVQTTQEEDGCSCRFPEEEEGGCELRVKFSRSADAPAYQQGQNQLYNELNLGRREEYDVLDKRRGRDPEMGGKPRRKNPQEGLYNELQKDKMAEAYSEIGMKGERRRGKGHDGLYQGLSTATKDTYDALHMQALPPR
Take B7: the binding result is recorded as “binds”.

B8: anti-BCMA CAR of recombinant lentivirus LV 7 (SEQ ID NO: 268) (receptor)
chain: DIQMTQSPSSLSASVGDRVTITCRASQSISSYLNWYQQKPGKAPKLLIYAASSLQSGVPSRFSGSGSGTDFTLTISSLQPEDFATYYCQQAHSSPITFGGGTKVEIKGGGGSGGGGSGGGGSGGGGSEVQLLESGGGLVQPGGSLRLSCAASGFTFSNYAMSWVRQAPGKGLEWVSAISGSGGSTYYADSVKGRFTISRDNSKNTLYLQMNSLRAEDTAVYYCARPGDGYYEGVYFDYWGQGTLVTVSSTTTPAPRPPTPAPTIASQPLSLRPEACRPAAGGAVHTRGLDFACDIYIWAPLAGTCGVLLLSLVITLYCKRGRKKLLYIFKQPFMRPVQTTQEEDGCSCRFPEEEEGGCELRVKFSRSADAPAYQQGQNQLYNELNLGRREEYDVLDKRRGRDPEMGGKPRRKNPQEGLYNELQKDKMAEAYSEIGMKGERRRGKGHDGLYQGLSTATKDTYDALHMQALPPR
On to B8, for which the binding result was “binds”.

B9: anti-BCMA CAR of recombinant lentivirus LV 15 (SEQ ID NO: 279) (receptor)
chain: EVQLLESGGGLVQPGGSLRLSCAASGFTFDSYTMSWYRQAPGKERELVSAISGHGDSTYYADSVKGRFTISRDNSKNTLYLQMNSLRAEDTAVYYCTRISITTEWLAGDYWGQGTQVTVSSTTTPAPRPPTPAPTIASQPLSLRPEACRPAAGGAVHTRGLDFACDIYIWAPLAGTCGVLLLSLVITLYCKRGRKKLLYIFKQPFMRPVQTTQEEDGCSCRFPEEEEGGCELRVKFSRSADAPAYQQGQNQLYNELNLGRREEYDVLDKRRGRDPEMGGKPRRKNPQEGLYNELQKDKMAEAYSEIGMKGERRRGKGHDGLYQGLSTATKDTYDALHMQALPPR
For the molecule B9, the binding result is given as “binds”.

B10: anti-BCMA CAR of recombinant lentivirus LV 11 (SEQ ID NO: 275) (receptor)
chain: EVQLLESGGGLVQPGGSLRLSCAASGFTFDEYTMHWFRQAPGKEREFVSAISGGGSETYYADSVKGRFTISRDNSKNTLYLQMNSLRAEDTAVYYCAAGGEEAGVGYWGQGTQVTVSSTTTPAPRPPTPAPTIASQPLSLRPEACRPAAGGAVHTRGLDFACDIYIWAPLAGTCGVLLLSLVITLYCKRGRKKLLYIFKQPFMRPVQTTQEEDGCSCRFPEEEEGGCELRVKFSRSADAPAYQQGQNQLYNELNLGRREEYDVLDKRRGRDPEMGGKPRRKNPQEGLYNELQKDKMAEAYSEIGMKGERRRGKGHDGLYQGLSTATKDTYDALHMQALPPR
With B10, the binding result was “binds”.

B11: anti-BCMA CAR of recombinant lentivirus LV 18 (SEQ ID NO: 283) (receptor)
chain: EVQLLESGGGLVQPGGSLRLSCAASGFTFSSEGMSWVRQAPGKERELVSAISGSGDHTYYADSVRGRFTISRDNSKNTLYLQMNSLRAEDTAVYYCNALEGGPTTAIQPGGPDYWGQGTQVTVSSTTTPAPRPPTPAPTIASQPLSLRPEACRPAAGGAVHTRGLDFACDIYIWAPLAGTCGVLLLSLVITLYCKRGRKKLLYIFKQPFMRPVQTTQEEDGCSCRFPEEEEGGCELRVKFSRSADAPAYQQGQNQLYNELNLGRREEYDVLDKRRGRDPEMGGKPRRKNPQEGLYNELQKDKMAEAYSEIGMKGERRRGKGHDGLYQGLSTATKDTYDALHMQALPPR
B11: the binding result is given as “binds”.

B12: anti-BCMA CAR of recombinant lentivirus LV 10 (SEQ ID NO: 274) (receptor)
chain: EVQLLESGGGLVQPGGSLRLSCAASGFTFESEAMSWYRQAPGKERELVSVITSEGSTYYADSVKGRFTISRDNSKNTLYLQMNSLRAEDTAVYYCAHIEWETRLNWGQGTQVTVSSTTTPAPRPPTPAPTIASQPLSLRPEACRPAAGGAVHTRGLDFACDIYIWAPLAGTCGVLLLSLVITLYCKRGRKKLLYIFKQPFMRPVQTTQEEDGCSCRFPEEEEGGCELRVKFSRSADAPAYQQGQNQLYNELNLGRREEYDVLDKRRGRDPEMGGKPRRKNPQEGLYNELQKDKMAEAYSEIGMKGERRRGKGHDGLYQGLSTATKDTYDALHMQALPPR
For B12, the binding result is “binds”.

B13: anti-BCMA CAR of recombinant lentivirus LV 9 (SEQ ID NO: 273) (receptor)
chain: EVQLLESGGGLVQPGGSLRLSCAASGFTFGSEAMSWVRQAPGKERELVSAISGSGEVTYYADSVKGRFTISRDNSKNTLYLQMNSLRAEDTAVYYCQRLVEAKRHWGQGTQVTVSSTTTPAPRPPTPAPTIASQPLSLRPEACRPAAGGAVHTRGLDFACDIYIWAPLAGTCGVLLLSLVITLYCKRGRKKLLYIFKQPFMRPVQTTQEEDGCSCRFPEEEEGGCELRVKFSRSADAPAYQQGQNQLYNELNLGRREEYDVLDKRRGRDPEMGGKPRRKNPQEGLYNELQKDKMAEAYSEIGMKGERRRGKGHDGLYQGLSTATKDTYDALHMQALPPR
notes: also called LV 9.1 to LV 9.9
B13: the binding result is “binds”.
